According to the supplement of paper PMC5998384:

Key:
HeLa Kyoto [1] = assay: solubility in G1/S (NP-40 vs SDS abundance) (log2 ratio); higher = more soluble; conditions: cell cycle stage: G1/S
HeLa Kyoto [2] = assay: solubility change mitosis vs G1/S (difference of NP-40 vs SDS log2 ratios) (log2 ratio difference); higher = more soluble in mitosis
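Wherever solubility change mitosis vs G1/S (difference of NP-40 vs SDS log2 ratios) is given: synchronized HeLa Kyoto cells (double thymidine block for G1/S, nocodazole release for mitosis), protein amounts in NP-40 versus SDS lysates quantified by mass spectrometry, three biological replicates.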
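Wherever solubility in G1/S (NP-40 vs SDS abundance) is given: HeLa Kyoto cells arrested at G1/S by double thymidine block, proteins quantified by TMT10plex mass spectrometry in mild NP-40 versus SDS extracts, three biological replicates.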

Row | Sequence | solubility in G1/S (log2) (HeLa Kyoto [1]) | solubility change mitosis (log2) (HeLa Kyoto [2])
1 | MMFGGYETIEAYEDDLYRDESSSELSVDSEVEFQLYSQIHYAQDLDDVIREEEHEEKNSGNSESSSSKPNQKKLIVLSDSEVIQLSDGSEVITLSDEDSIYRCKGKNVRVQAQENAHGLSSSLQSNELVDKKCKSDIEKPKSEERSGVIREVMIIEVSSSEEEESTISEGDNVESWMLLGCEVDDKDDDILLNLVGCENSVTEGEDGINWSISDKDIEAQIANNRTPGRWTQRYYSANKNIICRNCDKRGHLSKNCPLPRKVRRCFLCSRRGHLLYSCPAPLCEYCPVPKMLDHSCLFRHSWDKQCDRCHMLGHYTDACTEIWRQYHLTTKPGPPKKPKTPSRPSALAYCYHCAQKGHYGHECPEREVYDPSPVSPFICYYDDKYEIQEREKRLKQKIKVLKKNGVIPEPSKLPYIKAANENPHHDIRKGRASWKSNRWPQENKETQKEMKNKNRNWEKHRKADRHREVDEDFPRGPKTYSSPGSFKTQKPSKPFHRSSHYHTSREDKSPKEGKRGKQKKKERCWEDDDNDNLFLIKQRKKKS [ZCCHC7] | -2.02 | 0.926
2 | MMGSKMASASRVVQVVKPHTPLIRFPDRRDNPKPNVSEALRSAGLPSHSSVISQHSKGSKSPDLLMYQGPPDTAEIIKTLPQKYRRKLVSQEEMEFIQRGGPE [MRPS36] | 0.138 | 0.401
3 | MMLSRAKPAVGRGVQHTDKRKKKGRKIPKLEELLSKRDFTGAITLLEFKRHVGEEEEDTNLWIGYCAFHLGDYKRALEEYENATKEENCNSEVWVNLACTYFFLGMYKQAEAAGFKASKSRLQNRLLFHLAHKFNDEKKLMSFHQNLQDVTEDQLSLASIHYMRSHYQEAIDIYKRILLDNREYLALNVYVALCYYKLDYYDVSQEVLAVYLQQIPDSTIALNLKACNHFRLYNGRAAEAELKSLMDNASSSFEFAKELIRHNLVVFRGGEGALQVLPPLVDVIPEARLNLVIYYLRQDDVQEAYNLIKDLEPTTPQEYILKGVVNAALGQEMGSRDHMKIAQQFFQLVGGSASECDTIPGRQCMASCFFLLKQFDDVLIYLNSFKSYFYNDDIFNFNYAQAKAATGNTSEGEEAFLLIQSEKMKNDYIYLSWLARCYIMNKKPRLAWELYLKMETSGESFSLLQLIANDCYKMGQFYYSAKAFDVLERLDPNPEYWEGKRGACVGIFQMIIAGREPKETLREVLHLLRSTGNTQVEYMIRIMKKWAKENRVSI [TTC26] | -0.122 | -0.0547
4 | MMPFGKISQQLCGVKKLPWSCDSRYFWGWLNAVFNKVDYDRIRDVGPDRAASEWLLRCGAMVRYHGQERWQKDYNHLPTGPLDKYKIQAIDATDSCIMSIGFDHMEGLEHVEKIRLCKCHYIEDDCLLRLSQLENLQKTILEMEIISCGNITDKGIIALRHLRNLKYLLLSDLPGVREKENLVQAFKTALPSLELKLQLK [ATP5S] | -0.164 | -0.136
5 | MMSEHDLADVVQIAVEDLSPDHPVVLENHVVTDEDEPALKRQRLEINCQDPSIKTICLRLDSIEAKLQALEATCKSLEEKLDLVTNKQHSPIQVPMVAGSPLGATQTCNKVRCVVPQTTVILNNDRQNAIVAKMEDPLSNRAPDSLENVISNAVPGRRQNTIVVKVPGQEDSHHEDGESGSEASDSVSSCGQAGSQSIGSNVTLITLNSEEDYPNGTWLGDENNPEMRVRCAIIPSDMLHISTNCRTAEKMALTLLDYLFHREVQAVSNLSGQGKHGKKQLDPLTIYGIRCHLFYKFGITESDWYRIKQSIDSKCRTAWRRKQRGQSLAVKSFSRRTPNSSSYCPSEPMMSTPPPASELPQPQPQPQALHYALANAQQVQIHQIGEDGQVQVGHLHIAQVPQGEQVQITQDSEGNLQIHHVGQDGQLLEATRIPCLLAPSVFKASSGQVLQGAQLIAVASSDPAAAGVDGSPLQGSDIQVQYVQLAPVSDHTAGAQTAEALQPTLQPEMQLEHGAIQIQ [BANP] | 0.417 | 0.0132
6 | MNKNTSTVVSPSLLEKDPAFQMITIAKETGLGLKVLGGINRNEGPLVYIQEIIPGGDCYKDGRLKPGDQLVSVNKESMIGVSFEEAKSIITGAKLRLESAWEIAFIRQKSDNIQPENLSCTSLIEASGEYGPQASTLSLFSSPPEILIPKTSSTPKTNNDILSSCEIKTGYNKTVQIPITSENSTVGLSNTDVASAWTENYGLQEKISLNPSVRFKAEKLEMALNYLGIQPTKEQHQALRQQVQADSKGTVSFGDFVQVARNLFCLQLDEVNVGAHEISNILDSQLLPCDSSEADEMERLKCERDDALKEVNTLKEKLLESDKQRKQLTEELQNVKQEAKAVVEETRALRSRIHLAEAAQRQAHGMEMDYEEVIRLLEAKITELKAQLADYSDQNKESVQDLKKRIMVLDCQLRKSEMARKTFEASTEKLLHFVEAIQEVFSDNSTPLSNLSERRAVLASQTSLTPLGRNGRSIPATLALESKELVKSVRALLDMDCLPYGWEEAYTADGIKYFINHVTQTTSWIHPVMSVLNLSRSEENEEDCSRELPNQKS [STXBP4] | 0.308 | -0.138
7 | MNLQAQPKAQNKRKRCLFGGQEPAPKEQPPPLQPPQQSIRVKEEQYLGHEGPGGAVSTSQPVELPPPSSLALLNSVVYGPERTSAAMLSQQVASVKWPNSVMAPGRGPERGGGGGVSDSSWQQQPGQPPPHSTWNCHSLSLYSATKGSPHPGVGVPTYYNHPEALKREKAGGPQLDRYVRPMMPQKVQLEVGRPQAPLNSFHAAKKPPNQSLPLQPFQLAFGHQVNRQVFRQGPPPPNPVAAFPPQKQQQQQQPQQQQQQQQAALPQMPLFENFYSMPQQPSQQPQDFGLQPAGPLGQSHLAHHSMAPYPFPPNPDMNPELRKALLQDSAPQPALPQVQIPFPRRSRRLSKEGILPPSALDGAGTQPGQEATGNLFLHHWPLQQPPPGSLGQPHPEALGFPLELRESQLLPDGERLAPNGREREAPAMGSEEGMRAVSTGDCGQVLRGGVIQSTRRRRRASQEANLLTLAQKAVELASLQNAKDGSGSEEKRKSVLASTTKCGVEFSEPSLATKRAREDSGMVPLIIPVSVPVRTVDPTEAAQAGGLDEDGKGPEQNPAEHKPSVIVTRRRSTRIPGTDAQAQAEDMNVKLEGEPSVRKPKQRPRPEPLIIPTKAGTFIAPPVYSNITPYQSHLRSPVRLADHPSERSFELPPYTPPPILSPVREGSGLYFNAIISTSTIPAPPPITPKSAHRTLLRTNSAEVTPPVLSVMGEATPVSIEPRINVGSRFQAEIPLMRDRALAAADPHKADLVWQPWEDLESSREKQRQVEDLLTAACSSIFPGAGTNQELALHCLHESRGDILETLNKLLLKKPLRPHNHPLATYHYTGSDQWKMAERKLFNKGIAIYKKDFFLVQKLIQTKTVAQCVEFYYTYKKQVKIGRNGTLTFGDVDTSDEKSAQEEVEVDIKTSQKFPRVPLPRRESPSEERLEPKREVKEPRKEGEEEVPEIQEKEEQEEGRERSRRAAAVKATQTLQANESASDILILRSHESNAPGSAGGQASEKPREGTGKSRRALPFSEKKKKTETFSKTQNQENTFPCKKCGR [ELMSAN1] | -0.0645 | 0.257
8 | MNRHLCVWLFRHPSLNGYLQCHIQLHSHQFRQIHLDTRLQVFRQNRNCILHLLSKNWSRRYCHQDTKMLWKHKALQKYMENLSKEYQTLEQCLQHIPVNEENRRSLNRRHAELAPLAAIYQEIQETEQAIEELESMCKSLNKQDEKQLQELALEERQTIDQKINMLYNELFQSLVPKEKYDKNDVILEVTAGRTTGGDICQQFTREIFDMYQNYSCYKHWQFELLNYTPADYGGLHHAAARISGDGVYKHLKYEGGIHRVQRIPEVGLSSRMQRIHTGTMSVIVLPQPDEVDVKLDPKDLRIDTFRAKGAGGQHVNKTDSAVRLVHIPTGLVVECQQERSQIKNKEIAFRVLRARLYQQIIEKDKRQQQSARKLQVGTRAQSERIRTYNFTQDRVSDHRIAYEVRDIKEFLCGGKGLDQLIQRLLQSADEEAIAELLDEHLKSAK [MTRF1] | 0.228 | -0.0209
